Four substances from publication PMC5811025 can be followed below.

One may read the stoichiometry N as a count of units in the complex or per binding partner.

In assay [1] the target is PrxQ:C54S (Corynebacterium glutamicum). Kind of assay: mixed-disulfide heterodimer formation on non-reducing SDS-PAGE; 20 μM PrxQ variant and 15 μM Trx (WT or variant) in 30 mM Tris-HCl pH 8.0, 1 mM EDTA, room temperature 15 min, then 50 μM H2O2 for 30 min; 15% non-reducing SDS-PAGE.
Assay [2] addresses tag-free recombinant native peroxiredoxin Q (PrxQ) from Corynebacterium glutamicum (Corynebacterium glutamicum).

His6-Trx1:C35S (natural protein) returned a stoichiometry N in assay [1] of 1. Substance His6-Trx2:C33S (natural protein) registered a stoichiometry N in assay [1] of 1. Regarding Trx1 WT (wild type) (natural protein), the Km for Trx1 of the peroxidase activity of PrxQ with CHP (NADPH-coupled assay, Trx1/TrxR system, 0-120 μM Trx, 1 μM PrxQ) in assay [2] was found to be 4.41 µM. For the substance Trx2 WT (wild type) (natural protein), the Km for Trx2 of the peroxidase activity of PrxQ with CHP (NADPH-coupled assay, Trx2/TrxR system, 0-120 μM Trx, 1 μM PrxQ) in assay [2] came to 5.43 µM.
